Details: Homo sapiens, pH 5, 25 °C
[1] = GdnHCl, Fluorescence, Sodium acetate 50mM, transition: 2, structure 1TEN
[2] = Urea, CD, Sodium acetate 50 mM, structure 1TEN
[3] = GdnHCl, CD, Sodium acetate 50 mM, structure 1TTG
[4] = GdnHCl, Fluorescence, Sodium acetate 50mM, transition: 2, structure 1FNF

Fibronectin P1562A, P02751, sequence (P02751 whole entry P1562A): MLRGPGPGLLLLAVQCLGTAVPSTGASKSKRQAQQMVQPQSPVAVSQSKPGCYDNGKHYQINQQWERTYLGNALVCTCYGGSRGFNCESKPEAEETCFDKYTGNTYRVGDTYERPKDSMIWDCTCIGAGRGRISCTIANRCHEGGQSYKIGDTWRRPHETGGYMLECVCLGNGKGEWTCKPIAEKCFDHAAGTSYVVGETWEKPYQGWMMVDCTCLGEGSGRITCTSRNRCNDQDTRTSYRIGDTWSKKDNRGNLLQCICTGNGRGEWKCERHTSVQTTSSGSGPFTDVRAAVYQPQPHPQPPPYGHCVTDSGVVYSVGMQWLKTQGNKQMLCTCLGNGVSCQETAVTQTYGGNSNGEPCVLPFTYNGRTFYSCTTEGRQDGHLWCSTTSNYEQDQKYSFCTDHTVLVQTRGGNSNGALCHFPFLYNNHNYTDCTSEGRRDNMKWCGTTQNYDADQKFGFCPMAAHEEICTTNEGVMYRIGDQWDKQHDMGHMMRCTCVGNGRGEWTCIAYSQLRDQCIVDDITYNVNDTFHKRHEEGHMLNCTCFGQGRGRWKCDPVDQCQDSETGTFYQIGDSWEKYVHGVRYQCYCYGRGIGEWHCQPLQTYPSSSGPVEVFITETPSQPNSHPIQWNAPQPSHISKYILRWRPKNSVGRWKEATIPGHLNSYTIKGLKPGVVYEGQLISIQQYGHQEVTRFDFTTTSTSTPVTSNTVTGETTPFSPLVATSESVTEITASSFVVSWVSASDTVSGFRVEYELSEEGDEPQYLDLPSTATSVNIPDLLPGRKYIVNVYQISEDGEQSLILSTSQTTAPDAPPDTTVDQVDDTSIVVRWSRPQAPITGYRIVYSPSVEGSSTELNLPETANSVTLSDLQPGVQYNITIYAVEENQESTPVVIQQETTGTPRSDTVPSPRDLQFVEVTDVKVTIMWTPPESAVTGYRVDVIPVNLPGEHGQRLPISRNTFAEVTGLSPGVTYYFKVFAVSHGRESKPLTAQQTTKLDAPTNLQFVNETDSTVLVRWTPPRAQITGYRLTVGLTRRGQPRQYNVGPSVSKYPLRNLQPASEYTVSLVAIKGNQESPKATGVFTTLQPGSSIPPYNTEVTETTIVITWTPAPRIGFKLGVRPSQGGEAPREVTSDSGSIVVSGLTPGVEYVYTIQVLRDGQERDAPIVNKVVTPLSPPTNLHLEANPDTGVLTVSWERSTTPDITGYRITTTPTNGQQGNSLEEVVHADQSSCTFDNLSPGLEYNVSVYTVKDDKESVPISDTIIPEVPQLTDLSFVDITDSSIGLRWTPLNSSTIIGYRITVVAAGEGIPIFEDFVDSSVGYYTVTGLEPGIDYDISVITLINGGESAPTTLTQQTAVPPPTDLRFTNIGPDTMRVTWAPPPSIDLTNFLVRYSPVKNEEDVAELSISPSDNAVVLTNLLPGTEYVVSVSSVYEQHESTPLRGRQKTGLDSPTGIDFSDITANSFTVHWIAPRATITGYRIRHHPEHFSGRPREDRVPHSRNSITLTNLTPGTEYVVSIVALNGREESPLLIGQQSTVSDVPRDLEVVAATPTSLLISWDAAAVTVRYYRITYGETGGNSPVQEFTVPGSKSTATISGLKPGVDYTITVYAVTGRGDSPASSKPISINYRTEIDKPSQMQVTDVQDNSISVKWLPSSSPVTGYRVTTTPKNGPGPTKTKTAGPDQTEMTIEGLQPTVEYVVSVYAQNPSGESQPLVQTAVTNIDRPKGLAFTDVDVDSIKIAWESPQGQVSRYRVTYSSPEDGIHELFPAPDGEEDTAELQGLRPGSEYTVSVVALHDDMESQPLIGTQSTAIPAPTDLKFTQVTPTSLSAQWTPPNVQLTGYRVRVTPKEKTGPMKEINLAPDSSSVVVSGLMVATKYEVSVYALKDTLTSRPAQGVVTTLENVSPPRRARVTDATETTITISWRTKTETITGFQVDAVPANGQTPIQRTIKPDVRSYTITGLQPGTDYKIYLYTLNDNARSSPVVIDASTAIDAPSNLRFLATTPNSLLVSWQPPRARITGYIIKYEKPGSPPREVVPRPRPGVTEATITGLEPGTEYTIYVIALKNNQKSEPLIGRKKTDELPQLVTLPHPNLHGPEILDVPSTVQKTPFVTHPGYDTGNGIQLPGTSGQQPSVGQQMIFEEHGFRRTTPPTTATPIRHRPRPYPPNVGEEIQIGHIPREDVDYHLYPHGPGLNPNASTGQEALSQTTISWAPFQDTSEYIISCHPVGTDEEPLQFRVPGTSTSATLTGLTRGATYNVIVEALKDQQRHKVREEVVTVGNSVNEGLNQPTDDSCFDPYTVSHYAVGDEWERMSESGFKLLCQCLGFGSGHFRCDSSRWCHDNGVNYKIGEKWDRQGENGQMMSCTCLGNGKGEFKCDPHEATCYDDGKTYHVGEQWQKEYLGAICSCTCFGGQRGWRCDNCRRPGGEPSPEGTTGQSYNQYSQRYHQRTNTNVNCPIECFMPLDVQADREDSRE
Fibronectin L1555A, P02751, sequence (P02751 whole entry L1555A): as the sequence (P02751 whole entry P1562A) above, with L1555A, A1562P counted along it
Fibronectin I1571A, P02751, sequence (P02751 whole entry I1571A): as the sequence (P02751 whole entry P1562A) above, with A1562P, I1571A counted along it
Fibronectin I1627A, P02751, sequence (P02751 whole entry I1627A): as the sequence (P02751 whole entry P1562A) above, with A1562P, I1627A counted along it
Fibronectin S1622A, P02751, sequence (P02751 whole entry S1622A): as the sequence (P02751 whole entry P1562A) above, with A1562P, S1622A counted along it

Row | Substance | ddG of mutation (higher = less stable) [2] [kcal/mol] | denaturant m value [2] [kcal/mol/M] | denaturant midpoint (higher = more stable) [2] [M] | ddG of mutation (higher = less stable) [3] [kcal/mol] | denaturant m value [3] [kcal/mol/M] | denaturant midpoint (higher = more stable) [3] [M] | further results
1 | Tenascin, P24821 Y858A | 1.38 | 1.3 | 4.19 | – | – | – | ddG of mutation (higher = less stable) [1]: 1.38 kcal/mol; denaturant midpoint (higher = more stable) [1]: 1.3 M
2 | Tenascin, P24821 I860A | 2.06 | 1.3 | 3.63 | – | – | – | –
3 | Fibronectin I1571A, P02751 | – | – | – | 5.02 | 6.9 | 0.7 | –
4 | Fibronectin P1562A, P02751 | – | – | – | 0.48 | 6.5 | 1.4 | –
5 | Tenascin, P24821 L835A | 4.29 | 1.4 | 1.8 | – | – | – | –
6 | Fibronectin S1622A, P02751 | – | – | – | -0.11 | 6.5 | 1.49 | –
7 | Fibronectin L1555A, P02751 | – | – | – | 0.87 | 6.3 | 1.34 | –
8 | Tenascin, P24821 I849A | 2.19 | 1.1 | 3.52 | – | – | – | ddG of mutation (higher = less stable) [1]: 2.19 kcal/mol; denaturant m value [1]: 2.87 kcal/mol/M; denaturant midpoint (higher = more stable) [1]: 1.1 M
9 | Fibronectin I1627A, P02751 | – | – | – | 0.35 | 6 | 1.42 | ddG of mutation (higher = less stable) [4]: 3.66 kcal/mol; denaturant m value [4]: 7.2 kcal/mol/M; denaturant midpoint (higher = more stable) [4]: 1.04 M; unfolding free energy [4]: 5.74 kcal/mol

Reference: FireProtDB (doi:10.1006/jmbi.2000.4053)
